We go through one substance from PMC6744903.

The target in the experiment is MBP-XerD (V. cholerae) (UniProt Q9KPE9). Briefly: pull-down.

For the substance purified XafT peptide (natural protein), the fold XafT recovered against amylose beads alone turned out to be 3 fold.
